± gives the standard deviation of the averaged measurements.
The sequences below were run on ATP (assay: switch fluorescence ratio, 500 uM ATP over buffer (Cy3 cluster intensity, sum of 5 cycles each) (fold (ratio)); higher = stronger signal-on switching upon ATP binding; sequences stand for … in TCGTCGGCAGCGTCAGATGTGTATAAGAGACAGTTTTTTTTTTTTTTTTTTTTTTTTT…TC). Settings: aptamer strand: ATP DNA aptamer (quencher-CACCTGGGGGAGTATTGCGGAGGAAGG + anchor), 100 nM annealed; ATP concentration: 500 uM.
In short: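 Per cluster, summed Cy3 intensity from the target cycles was divided by that from the buffer cycles to give the fluorescence ratio, then averaged per switch-domain sequence. Clusters outside 100-1000 RFU were excluded. The Cy3-labelled switching-strand clusters, on a modified Illumina MiSeq flow-cell, were annealed to 100 nM quencher-labelled ATP aptamer and imaged in selection buffer, then after 15 min with 500 uM ATP at 22 °C, for five cycles with NaOH stripping and re-annealing between them.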
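Further: ATP exposure 15 min at 22 °C before imaging.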

| Sequence | switch fluorescence ratio |
| --- | --- |
| TTAAGATTTA | 0.9933 ± 0.0077 |
| CGTAGAATGC | 1.44 ± 0.082 |
| GGGGAAAAAA | 1.06 ± 0.14 |
| CGTCGGCGCC | 1.09 ± 0.12 |
| CGGCGGCTTC | 1.01 ± 0.028 |
| CATGCTAAGT | 0.997 ± 0.011 |
| TCACGAGGCT | 1.038 ± 0.0097 |
| CAATGGAGGG | 0.992 ± 0.033 |
| GCAAGTCATG | 1.03 ± 0.04 |
| TTAAACGGTA | 1.03 ± 0.029 |
| CGTAGGGGTG | 0.969 ± 0.014 |
| GTAGGAGGAG | 0.991 ± 0.032 |
| AGGCGCAATT | 1.81 ± 0.94 |
| ATTCGGACGG | 1.026 ± 0.0055 |
| TTTTATAGGA | 0.976 ± 0.006 |
| TTGTTTCGGG | 0.978 ± 0.018 |
| AAATTCAATA | 1.002 ± 0.0033 |
| TTTGGGGAGA | 1 ± 0.041 |
| GGGCAAGCTG | 1.04 ± 0.1 |
| TGAGCCTTGG | 0.995 ± 0.017 |
| GTTGAAACGT | 1.06 ± 0.023 |
| ATTGCCGGGA | 1.01 ± 0.0089 |
| TGTGTTTGAG | 0.972 ± 0.051 |

| Sequence | switch fluorescence ratio |
| --- | --- |
| TATTAAGTGC | 0.955 ± 0.039 |
| AATACAATGG | 1.04 ± 0.011 |
| TGCCTTTGTA | 0.963 ± 0.013 |
| TAAGGGAGTT | 0.9874 ± 0.0095 |
| ATATTAGTTT | 1 ± 0.011 |
| TAGACTTTTT | 0.997 ± 0.03 |
| GTGTTGGTAT | 1.01 ± 0.034 |
| ATGTAACTTT | 1.16 ± 0.27 |
| ATTGTCTTTG | 0.982 ± 0.018 |
| GATATGTGGT | 0.9989 ± 0.004 |
| ATTTAGCTTA | 1.0052 ± 0.00027 |
| GACTAAAATG | 1.02 ± 0.019 |
| AGTTAGGTGT | 1.04 ± 0.044 |
| AGATATTATT | 0.9771 ± 0.0015 |
| TATTGCGGCC | 1.02 ± 0.026 |
| ATAAGGGGGT | 0.973 ± 0.016 |
| CGTTTGAGTG | 1.02 ± 0.023 |
| CAGTCGAGTT | 1.003 ± 0.0076 |
| TAGCCATGTC | 0.924 ± 0.053 |
| CGGGGACGGG | 1.02 ± 0.013 |
| TTTTGATAAC | 0.97 ± 0.036 |
| ATCATTCAAA | 1.008 ± 0.0073 |
| CACTTAGGGC | 1.06 ± 0.024 |

| Sequence | switch fluorescence ratio |
| --- | --- |
| GCCCTTAGCG | 1.06 ± 0.073 |
| GAATTAGGGA | 1.01 ± 0.018 |
| CGTTAATTTT | 0.983 ± 0.026 |
| ACAGGCGTCA | 1.02 ± 0.024 |
| GCTTTATAGG | 1 ± 0.016 |
| GATGAGATTT | 0.972 ± 0.046 |
| ATGACTGGAG | 0.9896 ± 0.0076 |
| ACTCGCGGGT | 1.04 ± 0.021 |
| GAATTTGAGC | 1.03 ± 0.02 |
| GGGGGGGAAC | 1 ± 0.04 |
| TTTCATTTAT | 0.986 ± 0.021 |
| AGCCGTGATG | 1.06 ± 0.048 |
| CTCGGTTTTT | 0.989 ± 0.035 |
| TAGGCACAAC | 1.15 ± 0.025 |
| AGTAAGGCGC | 1.02 ± 0.045 |
| AGGTGGTACA | 0.993 ± 0.03 |
| GACGGCAGTG | 1 ± 0.02 |
| TAGTTGTTGT | 0.981 ± 0.049 |
| TTCCAAATTG | 0.993 ± 0.017 |
| ACGGGGGTAA | 1.18 ± 0.3 |
| CAAACTCCCA | 1.16 ± 0.18 |
| AATGAGTCAA | 1 ± 0.021 |
| ATACCGGTTG | 1.02 ± 0.015 |

| Sequence | switch fluorescence ratio |
| --- | --- |
| GATCGTATGT | 0.9838 ± 0.0013 |
| TCGGGAATTT | 1.067 ± 0.0091 |
| TCACTTATGG | 1.03 ± 0.033 |
| GAAGGGGGG | 1.001 ± 0.0094 |
| ATAAAAGAAG | 1.01 ± 0.041 |
| GGAGTACCTG | 1.06 ± 0.046 |
| CGAGAGGAGT | 0.997 ± 0.014 |
| ACTACCCCAA | 1.94 ± 0.14 |
| GGGGAATCAG | 1.03 ± 0.017 |
| GCGGTGCTGG | 0.991 ± 0.024 |
| CGGTGGTTGG | 1 ± 0.029 |
| ACCGACGCGG | 2.55 ± 0.34 |
| GGGTGTCCTT | 0.998 ± 0.042 |
| TCAGTTGTCA | 0.981 ± 0.017 |
| TCCCTATCAC | 1.1 ± 0.042 |
| GATATAGCTC | 0.999 ± 0.038 |
| ATAGTGACCG | 1.01 ± 0.013 |
| AGGTGTTCCG | 1.04 ± 0.084 |
| CGGGGCAGGT | 1.01 ± 0.021 |
| AAGGAATAGG | 0.98 ± 0.016 |
| TAGAGGGGTT | 0.985 ± 0.02 |
| CCAAGCATCG | 1.197 ± 0.0062 |
| CGGGTATAGC | 0.996 ± 0.05 |

| Sequence | switch fluorescence ratio |
| --- | --- |
| CTGTTATCGA | 0.9972 ± 0.0029 |
| AGGGGTACAT | 1.01 ± 0.033 |
| CAGTCTGCAG | 0.991 ± 0.031 |
| TGATAGGGGT | 1.02 ± 0.05 |
| TTCTGGATCC | 1.02 ± 0.043 |
| TTTTGGGACT | 1.03 ± 0.019 |
| ATAGTCCCAC | 0.9901 ± 0.009 |
| AGGTGCATTT | 1.08 ± 0.02 |
| GTAGTTATGG | 1.04 ± 0.03 |
| TTAGGAGCGG | 1.04 ± 0.047 |
| TGTTATGGGT | 1.04 ± 0.039 |
| ATTGCAGGGA | 0.993 ± 0.042 |
| TCAGCCGTTT | 1.05 ± 0.054 |
| ATTGTAATAG | 1.04 ± 0.05 |
| TTAGAAGGG | 0.965 ± 0.012 |
| CCAAATGAAT | 1.03 ± 0.025 |
| GCTTGTATTT | 1 ± 0.014 |
| GAACGGGGGG | 0.9624 ± 0.0053 |
| ACAGTTCTAC | 1.03 ± 0.031 |
| GTTGTGGCGG | 0.97 ± 0.021 |
| TGAGATCGGC | 0.992 ± 0.042 |
| TTCATAGGTT | 1.02 ± 0.012 |
| CGAGGATGTG | 0.964 ± 0.035 |

| Sequence | switch fluorescence ratio |
| --- | --- |
| GTGTGGCTGG | 0.9398 ± 0.0088 |
| ACCAGGGGGT | 1.05 ± 0.09 |
| CAAGTCTAGA | 0.995 ± 0.026 |
| TTATCGTTGG | 1 ± 0.031 |
| CCGATGGTCT | 1.25 ± 0.072 |
| ATTCAAAAAT | 1.04 ± 0.016 |
| CTTATTTGGC | 1.032 ± 0.0017 |
| TTAGGGGTCT | 1.03 ± 0.019 |
| TTTTAGTGGC | 1.02 ± 0.029 |
| ATATGGATAA | 1.01 ± 0.012 |
| TTGATATGGT | 0.997 ± 0.022 |
| AAAATCTAAT | 1.01 ± 0.054 |
| TGTTGGGAGG | 0.969 ± 0.017 |
| AACCGTAGTC | 1.15 ± 0.049 |
| TCTGCCATTT | 1.44 ± 0.63 |
| GCGTTAGCGC | 0.968 ± 0.012 |
| TTCGTGGTGT | 1.03 ± 0.015 |
| GGTTGGTGGG | 0.969 ± 0.044 |
| GCAAGATGGG | 0.983 ± 0.015 |
| GATGGGGGTC | 1.21 ± 0.34 |
| TTGTGCTGTA | 1.02 ± 0.013 |
| TAATTTAGTA | 0.9929 ± 0.0073 |
| TTCGGGGACG | 0.969 ± 0.052 |

| Sequence | switch fluorescence ratio |
| --- | --- |
| ATTGTTATTA | 1.028 ± 0.0035 |
| GGGGGGCTGG | 0.979 ± 0.025 |
| CGGGATGGCT | 0.996 ± 0.011 |
| TGGTTTTGGA | 0.976 ± 0.056 |
| AGTTTTTATG | 1.026 ± 0.0028 |
| GACGGGATAG | 1.245 ± 0.0072 |
| CGGAGGCAGG | 1.21 ± 0.28 |
| GTTTACGTGG | 1.01 ± 0.015 |
| TTTTATTGGA | 1 ± 0.03 |
| GGTATGGATC | 0.9869 ± 0.0084 |
| TTATGGGTCA | 0.983 ± 0.025 |
| GTTATTTGGA | 0.971 ± 0.069 |
| AGTGAATGGA | 0.991 ± 0.024 |
| TATTCGATTT | 1.032 ± 0.0016 |
| GGTGAGAGTT | 0.956 ± 0.0087 |
| GCAGCGGGGA | 1.04 ± 0.017 |
| TTCGGTGTGG | 1.01 ± 0.04 |
| ACAATCGGAA | 1.025 ± 0.0014 |
| GCTCTTTAGA | 0.962 ± 0.018 |

— the supplement of paper PMC10126150
